# Results: patent US20110177600A1 (published 2011)
# Target: diphtheria toxin (UniProt P00588 33-567)
# Assay: cell-based or functional assay
# diphtheria toxin, sequence (P00588 33-567 limits assumed): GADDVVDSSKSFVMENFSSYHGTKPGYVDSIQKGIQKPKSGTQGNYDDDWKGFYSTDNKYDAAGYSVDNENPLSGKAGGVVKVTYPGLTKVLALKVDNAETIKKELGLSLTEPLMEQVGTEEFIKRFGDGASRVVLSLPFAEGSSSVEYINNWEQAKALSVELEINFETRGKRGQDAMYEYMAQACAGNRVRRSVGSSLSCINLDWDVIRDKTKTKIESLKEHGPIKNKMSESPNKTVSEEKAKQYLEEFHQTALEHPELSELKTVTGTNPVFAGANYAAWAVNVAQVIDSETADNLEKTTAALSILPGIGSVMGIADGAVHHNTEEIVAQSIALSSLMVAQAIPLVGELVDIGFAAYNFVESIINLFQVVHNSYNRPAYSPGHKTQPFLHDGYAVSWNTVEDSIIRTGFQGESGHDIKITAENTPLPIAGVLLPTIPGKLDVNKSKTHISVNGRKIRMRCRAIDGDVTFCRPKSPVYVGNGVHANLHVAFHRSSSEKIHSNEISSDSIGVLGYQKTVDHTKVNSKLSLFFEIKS
row,Binder,EC50 for protecting Jurkat cells from killing by diphtheria toxin (3H-thymidine incorporation)
1,"anti-diphtheria toxin antibody expressed in DG44 cells (antibody, human IgG1, kappa, V domains shown) VH: EVQLVESGGGLVKPGGSLRLSCEASGFIFSDYYMSWIRQAPGKGLEWISYISPSGSTLYYADSMRGRFTISRDNAKNSLYLQMNSLRVEDTAVYFCAREYPTTSKVAITPNWFDLWGQGTLVTVSS VL: ETTLTQSPATLSLSPGERATLSCRASQSVSTFLAWYQQKPGQAPRLLIYDASNRATGIPARFSGSGSGTDFTLTISSLEPEDFAVYYCQQRNIWPSFGGGTKVDIKR",8 ng/mL
2,"anti-diphtheria toxin antibody expressed in PER.C6 cells (antibody, human IgG1, kappa, V domains shown) VH: EVQLVESGGGLVKPGGSLRLSCEASGFIFSDYYMSWIRQAPGKGLEWISYISPSGSTLYYADSMRGRFTISRDNAKNSLYLQMNSLRVEDTAVYFCAREYPTTSKVAITPNWFDLWGQGTLVTVSS VL: ETTLTQSPATLSLSPGERATLSCRASQSVSTFLAWYQQKPGQAPRLLIYDASNRATGIPARFSGSGSGTDFTLTISSLEPEDFAVYYCQQRNIWPSFGGGTKVDIKR",11 ng/mL
